The target in this experiment is SARS-CoV-2 Omicron (B.1.1.529) RBD (SARS-CoV-2 Omicron B.1.1.529 (BA.1), strain).

Numbering of substitutions follows the chain as printed.

B1: BD55-5293 (antibody, V domains shown)
VH: EVQLVQSGAEVKKPGESLKISCKTSGYSFISNWIGWVRQMPGKGLEWMGIIYPGDSDTRYSPSFQGQVTISVDKSISTAYLQWTSLKASDTAMYFCTRRGDYGEFGGFDGDWGQGTLVTVTS
VL: DIQMTQSSSSLSASVGDRVTITCRASQSTGRYLNWYQQKAGKAPKLVIYAVSSLQSGVPSRFSGSGSGTEFTLTINSLQPEDFATYYCQQTYSIPFTFGPGTKVDLK
Turning to B1, the binding result is recorded as “binds”.

B2: BD-369 (antibody, V domains shown)
VH: EVQLVESGGGLVQPGGSLRLSCAASGITVSSNYMTWVRQAPGKGLEWVSLIYSGGSTYYADSVKGRFTISRDNSKNTLHLQMNSLRGEDTAVYYCARDLVAFGMDVWGQGTTVTVSS
VL: AIQLTQSPSSLSASVGDRVTITCRASQGISSYLAWYQQKPGKAPKLLIYAASTLQGGVPSRFSGSGSGTDFTLTISSLQSEDSATYYCQQLNSDTPTFGPGTKVEIK
Regarding B2, the binding result is recorded as “binds”.

B3: BD-614 (antibody, V domains shown)
VH: QVQLVESGGGLVQPGGSLRLSCAASGLIVSSNYMSWVRQAPGEGLEWVSVIYSGGSTYYADSVKGRFTISRDTSKNTLYLQMNSLRAEDTAVYYCARARIYTYGPDYWGQGTLVTVSS
VL: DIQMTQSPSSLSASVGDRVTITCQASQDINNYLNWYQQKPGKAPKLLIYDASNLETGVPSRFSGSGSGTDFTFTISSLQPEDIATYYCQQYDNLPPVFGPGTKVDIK
In the case of B3, the binding result is “binds”.

B4: BD-836 (antibody, V domains shown)
VH: QVQLVQSGPEVKKPGTSVRVSCKASGFTFSTSAVQWVRQARGQRLEWIGWIAVGSGKTDYLQKFQERVTMTRDESTNTAYMQLSSLRSEDTAVYYCAAPHCSGGTCYDGFDIWGQGTLVTVSS
VL: EIVLTQSPGTLSLSPGERATLSCRASQSVRSGYFAWYQQRPGRAPRLLIYGASSRATAIPDRFSGSGSGTDFTLTINRLEPEDFAVYYCQQYGTSPWTFGQGTKVEIK
For the molecule B4, the binding result was “binds”.

B5: COVOX-222 (antibody, V domains shown)
VH: EVQLVESGGGLIQPGGSLRLSCAASGLTVSSNYMSWVRQAPGKGLEWVSVIYSGGSTFYADSVKGRFTISRDNSKNTLYLQMNSLGAEDTAVYYCARGEGSPGNWFDPWGQGTLVTVSS
VL: DVVMTQSPGTLSLSPGERATLSCRASQSVPSSYLAWYQQKPGQAPRLLIYGASTRATGIPDRFSGSGSGTDFTLTISRLEPEDFAVYYCQHYDTSPRFGGGTKVDIK
Consider B5, for which the binding result is on record as “binds”.

B6: BG4-25 (antibody, V domains shown)
VH: EVQLVESGGGLIQPGGSLRLSCAASGITVVRNYMTWVRQAPGKGLEWVSVIYSGGTTYYADSVKGRFTISRDNSKNTMYLQMNSLRAEDTAIYYCARDLEVVGAMDVWGQGTTVTVSS
VL: EIVLTQSPGTLSLSPGERATLSCRASQSVPSSYLAWYQQKPGQAPRLLIYGASSRATGIPDRFSGSGSGTDFTLTISRLEPEDFAVYYCQQYGSPMYTFGQGTKLEIK
On to B6, for which the binding result is “binds”.

B7: BD-812 (antibody, V domains shown)
VH: EVQLVQSGAEVKKPGESLKISCQFSEYKLISFWIAWVRQRPGKGLEWMGIIYPDDSDTKYSPSSQGQVTISADKSIRTAYLQWSSLMASDTAMYYCTSGSYYGTLDFWGQGTLVTVSS
VL: DIEITQSPSSLSASVGDRVTISCRASQDIRTYVAWYQQRPGKVPRLLIYAASTLQSGVPSRFSGRGSGTDFTLTISSLQPEDVATYYCQQYNSAPLTFGGGAKVEIK
As for B7, the binding result is on record as “binds”.

B8: BD55-3637 (antibody, V domains shown)
VH: QVQLVESGGGVVQPGRSLRLSCAASGFTFSTYGMHWVRQAPGKGLQWVAFISDGGNKKYFADSVKGRFTISRDNSKNTLYLQMSSLRTEDTAVYYCAKERYCAGGDCSNPFFDYWGQGTLVTVSS
VL: DIQVTQSPSSLSASVGDRVTITCRASQSISSSLNWYQHKPGNAPKLLIYAASSLQSGVPSRFSGSGSGTDFILTISSLQPEDFATYYCQQSHSFPRTFGQGTKVEFR
Take B8: the binding result was “binds”.

B9: COV2-2072 (antibody, V domains shown)
VH: QMQLVQSGPEVKKPGTSVKVSCKTSGFTFTSSAIQWVRQARGQRLEWIGWIVVGSGNTNYAQKFQERVTITRDMSTSTAYMELSSLRSEDTAVYYCAAPHCNRTSCYDAFDLWGQGTMVTVSS
VL: not shown
As for B9, the binding result is recorded as “binds”.

B10: COV2-2381 (antibody, V domains shown)
VH: B9 VH with T24A, I34V, V52A, T69S, H100Y, N102S, Y107H, L112I, M118K
VL: EVVLTQSPGTLSLSPGERATLSCRASQSVSSSYLAWYQQKPGQAPRLLIYGASSRATGIPDRFSGSGSGTDFTLTISRLEPEDFAVYHCQHFGSSSQWTFGQGTKVEIK
On to B10, for which the binding result is “binds”.

B11: BD55-5386 (antibody, V domains shown)
VH: QVQLLQSGAEVKKPGSSVTVSCKASGGTFTNSAINWVRQAPGQGLEWIGGIIPIIGPTSYAQKFQGRVTITADESSTTAYLDLRSLRSDDTAVYYCAKAHCGDCTPPRGYYFYYFGMDVWGQGTTVTVSS
VL: SYELTQPPSVSVSPGQTARITCSGDALPKQYSYWYQQRPGQAPVLLIYKDNERPSGIPERFSGSSSGTTVTLTISGVQAEDEADYYCQSADASSTYVVFGGGTKLTVL
Consider B11, for which the binding result is “binds”.

B12: BD55-1104 (antibody, V domains shown)
VH: EVQLVQSGAEVKKPGESLKISCKGSGYSFTTYWTGWVRQVPGKGLEWMGLIYPRDSDARYTPSFEGHVTISADNSINTAYLHWSSLKASDTAIYYCVSAGDTGWRGHADYWGQGTLVTVSS
VL: DIQMTQSPSSLSASVGDRVTITCRASLDIRNYLVWFQQKPGTAPKSLIYEASTLQSGVPSRFSGSGSGTDFTLTISSLRPEDFATYYCQQYNTWPFTFGGGTKVEIK
For B12, the binding result was “binds”.

B13: BD-932 (antibody, V domains shown)
VH: EVQLVESGGALVHPGRSLRLSCTASGFTFEDYAMHWVRQAPGKGLEWVSGVSWNSGTIGYADSVKGRFIISRDNAKNSLYLQMLSLRVEDTAFYYCAKHGGLLDTSLDQYYFDYWGQGTLVTVSS
VL: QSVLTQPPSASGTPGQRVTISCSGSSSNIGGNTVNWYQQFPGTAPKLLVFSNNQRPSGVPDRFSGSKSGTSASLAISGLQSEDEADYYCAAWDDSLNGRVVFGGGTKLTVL
For the molecule B13, the binding result is reported as “binds”.

B14: BD-566 (antibody, V domains shown)
VH: QVQLVESGGGVVQPGRSLRLSCAASGFTFRSYGMHWVRQAPGKGLEWVAVISKDGSNKYYADSVKGRFTISRDNSKNTLYLQWNSLRAEDTAVYYCARALVVPGAPRYYYYGMDVWGQGTTVTVSS
VL: AIQLTQSPSSLSASVGDRVTITCRASQGISSALAWYQQRPGKAPKLLIYDASTLESGVPSRFSGSGSGTDFTLTISSLQPEDFATYYCQQFNTYPWTFGQGTKVELK
On to B14, for which the binding result was “binds”.

B15: BD-804 (antibody, V domains shown)
VH: EVQLVESGGGLVKPGGSLRLSCAASGFTFSNYDMNWVRQAPGKGLEWVSSISSSSTYTHYADSVKGRFTISRDNAKNSLYLQMNSLRAEDTAVYYCARDRAYRLGELSSLWGDDAFDIWGQGTMVTVSS
VL: AVWMTQSPSLLSASTGDRVTVSCRMSQDISSYLAWYQQKPGKAPELLIYAAFTLQSGVPSRFSGSGSGTEFTLTISSLQSEDFATYYCQQYYSFPHTFGQGTKLERR
Take B15: the binding result is recorded as “binds”.

B16: LY-CoV1404 (antibody, V domains shown)
VH: QITLKESGPTLVKPTQTLTLTCTFSGFSLSISGVGVGWLRQPPGKALEWLALIYWDDDKRYSPSLKSRLTISKDTSKNQVVLKMTNIDPVDTATYYCAHHSISTIFDHWGQGTLVTVSS
VL: QSALTQPASVSGSPGQSITISCTATSSDVGDYNYVSWYQQHPGKAPKLMIFEVSDRPSGISNRFSGSKSGNTASLTISGLQAEDEADYYCSSYTTSSAVFGGGTKLTVL
For the molecule B16, the binding result is “binds”.

B17: BD55-1962 (antibody, V domains shown)
VH: QVQLVQSGAEVKKPGSSVKVSCTASGDSFSSYAITWVRQAPGQGLEWMGRIIPILGIANYAQKFQGRVTLTADKSAGTAYMELSSLRSDDTAVYYCASGYDFHFDYWGQGTLVTVYS
VL: QSALTQPASVSGSPGQSITISCTGTSSDVGDYKYVSWYQQHAGKAPKLMIHDVSKRPSGVSSRFSGSKSGNTASLTISGLQAEDEADYYCSSYTSSSSWVFGGGTKLTVL
Turning to B17, the binding result is recorded as “binds”.

B18: S2E12 (antibody, V domains shown)
VH: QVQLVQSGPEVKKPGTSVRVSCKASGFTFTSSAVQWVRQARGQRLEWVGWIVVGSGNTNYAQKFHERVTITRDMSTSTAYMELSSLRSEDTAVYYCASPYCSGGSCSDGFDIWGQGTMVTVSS
VL: DIVLTQTPGTLSLSPGERATLSCRASQSVSSSYLAWYQQKPGQAPRLLIYGASSRATGIPDRFSGSGSGTDFTLTISRLEPEDFAVYYCQQYVGLTGWTFGQGTKVEIK
Consider B18, for which the binding result is “binds”.

B19: BD55-3152 (antibody, V domains shown)
VH: QVQLVQSGAEVKKPGASVIVSCKASGYRFISHYIHWVRQAPGQGLEWMGKIDPSGRGTTYAQKLQGRVSVTRDTSTSSVYMALSGLRSDDTAVYYCARDRFPLSDPYVWGSPLGGLDVWGQGTTVIVSS
VL: SYDLTQPPSVSVSPGQTARITCSGDALPSQYVYWYQQRPGQAPVLVMYKDSERPPGIPERFSGSTSGTTATLTITGVQAEDEADYYCQSADASTTYHVFGGGTKVTVV
As for B19, the binding result is listed as “binds”.

B20: BD55-1706 (antibody, V domains shown)
VH: QVQLQESGPGLLKPSETLSLTCTVSGGSINSYYWNWIRQSPRKGLEWIGYIFFSGSTNYNPSLKSRVTISLDRSKNQFSVHLRSVTAADTAVYYCARGDSKTGYDLELFDYWGHGTLVTVSS
VL: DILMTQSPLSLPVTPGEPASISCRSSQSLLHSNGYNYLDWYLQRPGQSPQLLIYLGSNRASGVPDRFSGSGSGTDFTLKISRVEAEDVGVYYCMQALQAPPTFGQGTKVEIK
Consider B20, for which the binding result is listed as “binds”.

B21: BD-744 (antibody, V domains shown)
VH: EVQLVESGGGLVQPGRSLRLSCAASGFTFDDYAMHWVRQAPGKGLEWVSGASWNSGTIGYADSVKGRFIIIRDNAKNSLYLQMNSLRSEDTASYYCAKDFSRDGDAFDIWGQGTMVTVSS
VL: SYVLPQPPSVSVAPGKTARITCGGNNIEHKSVHWYQQKPRQAPVVVMYYDSDRPSGIPERFSGSNSGNTATLIISRVEAGDEAEYYCQVWDRSSDQPVFGGGTKLTVL
Take B21: the binding result is recorded as “binds”.

B22: BD-618 (antibody, V domains shown)
VH: EVQLVESGGGLVQPGGSLRLSCAVSGFIVSRNYMTWVRQAPGKGLEWVSLIYSGGSTFYTNSVKGRFTISRDNSKNTLYLQMDSLRAEDTAVYYCARGPYPRFDYWGQGTLVTVSS
VL: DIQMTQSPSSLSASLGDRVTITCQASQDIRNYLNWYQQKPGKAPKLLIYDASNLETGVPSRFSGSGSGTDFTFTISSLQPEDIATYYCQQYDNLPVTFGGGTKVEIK
Consider B22, for which the binding result is reported as “binds”.

B23: BD55-387 (antibody, V domains shown)
VH: QITLKESGPTLVKPTQTLTLTCTFSGFSLSTSGVGVGWIRQPPGKALEWLALIYWDDDKRYSPALKSRLTITEDTSKNQVVLTMTNMDPVDTATYYCAHCAPAWNYFDYWGQGTLVAVSS
VL: QSVLTQPPSVSGAPGQRVTISCTGSSSNIGAGYDVHWYQQLPGTAPKLLIYRNSNRPSGVPGRFSGSKSGTSASLAITGLQAEDEADYFCQSYDSSLSGWVFGGGTKLTVL
In the case of B23, the binding result was “binds”.

Source of the values: paper PMC8866119 (Nature, 2021).
